Experimental data: publication doi:10.1101/2022.09.14.507916

Molecular target: octameric HlgAB pore complex of γ-hemolysin (four HlgA and four HlgB, alternating) (Staphylococcus aureus (strain Newman))
Assay: cryo-EM structure

octameric HlgAB pore complex of γ-hemolysin (four HlgA and four HlgB, alternating)
stoichiometry N: 6
